By Kd is commonly meant the free concentration of one partner at which half of the binding sites on the other are occupied at equilibrium, for simple one-to-one binding.

Assay [1] concerns the target human leukocyte antigen-G (HLA-G) recombinant protein (human) (UniProt P17693). The assay can be described thus: SPR kinetics, HLA-G as immobilised ligand; comparator panel at the right.
Assay [2] has as its target CD3ε (CD3 epsilon) recombinant protein (UniProt P07766). The assay is described as follows: SPR kinetics, CD3ε as immobilised ligand; comparator panel at the right. A general note: In SPR one partner is held on a chip, and binding of the other changes the refractive index at the surface.

Take Anti-human HLA-G Antibody (87G): the Kd in assay [1] was 8.69 nM.

Consider Muromonab-CD3 (antibody), for which the Kd in assay [2] worked out at 7.68 nM.

The values above are taken from patent US20220306748A1.
